Source: patent publication US7183387 (Genentech, dated 2007)

T1: human FcγRIIB α subunit extracellular domain-6His-GST fusion (human, UniProt P31994 43-217)
T1 construct: not shown: glutathione S-transferase (GST)
T1 sequence: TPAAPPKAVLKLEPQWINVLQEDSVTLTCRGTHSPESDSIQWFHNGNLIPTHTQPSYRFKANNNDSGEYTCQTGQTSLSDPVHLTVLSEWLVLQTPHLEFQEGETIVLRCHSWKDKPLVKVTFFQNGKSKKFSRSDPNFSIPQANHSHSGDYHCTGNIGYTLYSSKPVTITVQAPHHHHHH

T2: human FcγRIIA-R131 α subunit extracellular domain-6His-GST fusion (human, UniProt P12318 34-217)
T2 construct: also called FcγRIIA-Arg131; not shown: glutathione S-transferase (GST)
T2 sequence: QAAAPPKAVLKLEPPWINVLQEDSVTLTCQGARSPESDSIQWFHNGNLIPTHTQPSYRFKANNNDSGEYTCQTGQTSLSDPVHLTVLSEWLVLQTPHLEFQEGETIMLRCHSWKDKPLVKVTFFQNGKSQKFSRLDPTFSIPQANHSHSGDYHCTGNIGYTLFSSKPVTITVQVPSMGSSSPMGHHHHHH

T3: human FcγRIIB α subunit extracellular domain-His6-GST fusion (human, UniProt P31994 43-217)
T3 construct: extracellular domain; also called CD32; not shown: glutathione S transferase (GST)
T3 sequence: T1 sequence

T4: human FcγRIIA-Arg131 α subunit extracellular domain-His6-GST fusion (human, UniProt P12318 34-217)
T4 construct: extracellular domain; also called FcγRIIA-R131; not shown: glutathione S transferase (GST)
T4 sequence: T2 sequence

B1: anti-IgE E27 IgG1 Ala327Gln (antibody)
heavy: not shown
light: DIQLTQSPSSLSASVGDRVTITCRASKPVDGEGDSYLNWYQQKPGKAPKLLIYAASYLESGVPSRFSGSGSGTDFTLTISSLQPEDFATYYCQQSHEDPYTFGQGTKVEIKRTVAAPSVFIFPPSDEQLKSGTASVVCLLNNFYPREAKVQWKVDNALQSGNSQESVTEQDSKDSTYSLSSTLTLSKADYEKHKVYACEVTHQGLSSPVTKSFNRGEC
B2: anti-IgE E27 IgG1 Ala327Gly (antibody)
heavy: not shown
light: B1 light
B3: anti-IgE E27 IgG1 Ala327Ser (antibody)
heavy: not shown
light: B1 light
B4: anti-IgE E27 IgG1 Ala339Thr (antibody)
heavy: not shown
light: B1 light
B5: anti-IgE E27 IgG1 Ala378Gln (antibody)
heavy: not shown
light: B1 light
B6: anti-IgE E27 IgG1 Arg255Ala (antibody)
heavy: not shown
light: B1 light
B7: anti-IgE E27 IgG1 Arg292Ala (antibody)
heavy: not shown
light: B1 light
notes: also called R292(309)A
B8: anti-IgE E27 IgG1 Arg301Ala (antibody)
heavy: not shown
light: B1 light
B9: anti-IgE E27 IgG1 Asn276Ala (antibody)
heavy: not shown
light: B1 light
B10: anti-IgE E27 IgG1 Asn286Ala (antibody)
heavy: not shown
light: B1 light
B11: anti-IgE E27 IgG1 Asn315Ala (antibody)
heavy: not shown
light: B1 light
B12: anti-IgE E27 IgG1 Asp265Ala (antibody)
heavy: not shown
light: B1 light
notes: also called G14 D265A
B13: anti-IgE E27 IgG1 Asp280Ala (antibody)
heavy: not shown
light: B1 light
B14: anti-IgE E27 IgG1 Asp312Ala (antibody)
heavy: not shown
light: B1 light
B15: anti-IgE E27 IgG1 Asp376Ala (antibody)
heavy: not shown
light: B1 light
B16: anti-IgE E27 IgG1 Gln295Ala (antibody)
heavy: not shown
light: B1 light
notes: also called Q295(312)A
B17: anti-IgE E27 IgG1 Gln311Ala (antibody)
heavy: not shown
light: B1 light
B18: anti-IgE E27 IgG1 Gln362Ala (antibody)
heavy: not shown
light: B1 light
notes: also called Gln362A1a
B19: anti-IgE E27 IgG1 Glu258Ala (antibody)
heavy: not shown
light: B1 light
B20: anti-IgE E27 IgG1 Glu269Ala (antibody)
heavy: not shown
light: B1 light
notes: also called E269(282)A
B21: anti-IgE E27 IgG1 Glu272Ala (antibody)
heavy: not shown
light: B1 light
B22: anti-IgE E27 IgG1 Glu333Ala (antibody)
heavy: not shown
light: B1 light
notes: also called G54 E333A
B23: anti-IgE E27 IgG1 Glu382Ala (antibody)
heavy: not shown
light: B1 light
B24: anti-IgE E27 IgG1 Glu430Ala (antibody)
heavy: not shown
light: B1 light
B25: anti-IgE E27 IgG1 Asn297Ala (antibody)
heavy: not shown
light: B1 light
notes: removes the Asn-linked glycosylation site
B26: E27 IgG1 variant V303(322)T (antibody)
heavy: not shown
light: B1 light
B27: E27 IgG1 variant Y296(313)H (antibody)
heavy: not shown
light: B1 light
B28: E27 IgG1 variant Y296(313)W (antibody)
heavy: not shown
light: B1 light
notes: also called IG2 186

molecular target: T5, human FcγRIA α subunit extracellular domain-His6-GST fusion (human, UniProt P12314 16-292); experiment: FcγRI ELISA and THP-1 cells, averaged
T5 construct: extracellular domain; also called GST-FcγRIA; CD64; not shown: glutathione S transferase (GST)
T5 sequence (P12314 other isoform, or with tags, fused parts or gaps): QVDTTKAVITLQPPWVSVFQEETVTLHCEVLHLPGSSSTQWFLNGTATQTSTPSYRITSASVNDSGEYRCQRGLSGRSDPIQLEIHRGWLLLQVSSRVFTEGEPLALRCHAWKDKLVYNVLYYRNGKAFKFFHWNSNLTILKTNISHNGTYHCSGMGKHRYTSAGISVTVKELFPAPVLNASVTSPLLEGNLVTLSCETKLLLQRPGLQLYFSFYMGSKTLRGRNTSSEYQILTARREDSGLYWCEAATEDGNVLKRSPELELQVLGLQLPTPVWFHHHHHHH

Binder | ratio to native IgG1
B1 | 0.6 ratio
B2 | 0.96 ratio
B3 | 0.86 ratio
B4 | 1.06 ratio
B5 | 1.06 ratio
B6 | 0.99 ratio
B7 | 0.95 ratio
B8 | 1.06 ratio
B9 | 1.05 ratio
B10 | 0.95 ratio
B11 | 0.99 ratio
B12 | 0.16 ratio
B13 | 1.04 ratio
B14 | 1.01 ratio
B15 | 1 ratio
B16 | 1 ratio
B17 | 0.93 ratio
B18 | 1 ratio
B19 | 1.18 ratio
B20 | 0.61 ratio
B21 | 1.05 ratio
B22 | 0.98 ratio
B23 | 1.06 ratio
B24 | 1.05 ratio

molecular target: T6, human neonatal Fc receptor (FcRn), biotinylated (human, UniProt P55899 24-297; P61769 21-119, biotinylated (biotin-X-NHS)); experiment: FcRn ELISA, pH 6.0;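 further: Streptavidin-captured FcRn plates, IgG variants titrated 2 h at pH 6.0, peroxidase anti-human IgG read at 450 nm, variant over standard concentration at the standard curve mid-point absorbance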
T6 construct: captured on streptavidin plates
T6 sequence (P55899 24-297 limits assumed, chain 1 of 2): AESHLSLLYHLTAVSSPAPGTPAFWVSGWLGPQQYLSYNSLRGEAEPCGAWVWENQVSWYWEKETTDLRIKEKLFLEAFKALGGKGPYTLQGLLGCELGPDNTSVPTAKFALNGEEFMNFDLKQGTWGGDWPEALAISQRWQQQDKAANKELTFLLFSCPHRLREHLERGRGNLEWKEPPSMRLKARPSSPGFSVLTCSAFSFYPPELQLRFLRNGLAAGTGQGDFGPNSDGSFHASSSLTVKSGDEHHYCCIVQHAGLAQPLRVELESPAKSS
T6 sequence (P61769 21-119 limits assumed, chain 2 of 2): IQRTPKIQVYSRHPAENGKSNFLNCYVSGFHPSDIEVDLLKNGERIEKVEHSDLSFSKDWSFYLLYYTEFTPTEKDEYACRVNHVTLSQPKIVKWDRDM
Experimental: FcRn Binding ELISA: For measuring FcRn binding activity of IgG variants, ELISA plates were coated with 2 µg/ml streptavidin (Zymed, South San Francisco) in 50 mM carbonate buffer, pH 9.6, at 4° C. overnight and blocked with PBS-0.5% BSA, pH 7.2 at room temperature for one hour. Biotinylated FcRn (prepared using biotin-X-NHS from Research Organics, Cleveland, Ohio and used at 1–2 µg/ml) in PBS-0.5% BSA, 0.05% polysorbate 20, pH 7.2, was added to the plate and incubated for one hour. Two fold serial dilutions of IgG standard (1.6–100 ng/ml) or variants in PBS-0.5% BSA, 0.05% polysorbate 20, pH 6.0, were added to the plate and incubated for two hours. Bound IgG was detected using peroxidase labeled goat F(ab')_2 anti-human IgG F(ab')_2 in the above pH 6.0 buffer (Jackson ImmunoResearch, West Grove, Pa.) followed by 3,3',5,5'-tetramethyl benzidine (Kirgaard & Perry Laboratories) as the substrate. Plates were washed between steps with PBS-0.05% TWEEN 20® at either pH 7.2 or 6.0. Absorbance was read at 450 nm on a Vmax plate reader (Molecular Devices, Menlo Park, Calif.). Titration curves were fit with a four-parameter nonlinear regression curve-fitting program (KaleidaGraph, Synergy software, Reading, Pa.). Concentrations of IgG variants corresponding to the mid-point absorbance of the titration curve of the standard were calculated and then divided by the concentration of the standard corresponding to the mid-point absorbance of the standard titration curve.

Binder | ratio to native IgG1
B1 | 0.97 ratio
B5 | 1.32 ratio
B6 | 0.59 ratio
B7 | 0.81 ratio
B8 | 0.86 ratio
B9 | 1.15 ratio
B10 | 1.24 ratio
B25 | 0.8 ratio
B11 | 0.76 ratio
B12 | 1.23 ratio
B13 | 0.82 ratio
B14 | 1.5 ratio
B15 | 1.45 ratio
B16 | 0.79 ratio
B17 | 1.62 ratio
B18 | 1.25 ratio
B19 | 1.18 ratio
B20 | 1.05 ratio
B21 | 1.34 ratio
B22 | 1.03 ratio
B23 | 1.51 ratio
B24 | 0.93 ratio

molecular target: T7, human FcγRIIIA-F158 α subunit extracellular domain-6His-GST fusion (human, UniProt P08637 17-208); experiment: ELISA, IgG:IgE hexamers on receptor-GST
T7 construct: also called FcγRIIIA-Phe158; not shown: glutathione S-transferase (GST)
T7 sequence (P08637 other isoform, or with tags, fused parts or gaps, form in doubt): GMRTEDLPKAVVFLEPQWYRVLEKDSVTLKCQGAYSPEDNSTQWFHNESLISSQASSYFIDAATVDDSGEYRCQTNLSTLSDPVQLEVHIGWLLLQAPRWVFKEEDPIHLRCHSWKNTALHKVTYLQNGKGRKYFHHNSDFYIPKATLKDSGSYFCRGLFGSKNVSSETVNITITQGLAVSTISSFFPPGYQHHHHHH

Binder | ratio to native IgG1
B26 | 0.2
B27 | 0.92
B28 | 1.38

molecular target: T1, human FcγRIIB α subunit extracellular …; experiment: ELISA, IgG:IgE hexamers on receptor-GST

Binder | ratio to native IgG1
B26 | 0.34
B27 | 0.81
B28 | 0.93

molecular target: T2, human FcγRIIA-R131 α subunit …; experiment: ELISA, IgG:IgE hexamers on receptor-GST

Binder | ratio to native IgG1
B26 | 0.64
B27 | 0.9
B28 | 0.96

molecular target: T8, human FcγRIIIA-Phe158 α subunit extracellular domain-His6-GST fusion (human, UniProt P08637 17-208); experiment: hexamer ELISA
T8 construct: extracellular domain; also called FcγRIIIA-F158; CD16; not shown: glutathione S transferase (GST)
T8 sequence (P08637 other isoform, or with tags, fused parts or gaps): as the sequence (P08637 other isoform, or with tags, fused parts or gaps, form in doubt) above

Binder | ratio to native IgG1
B1 | 0.06 ratio
B2 | 0.36 ratio
B3 | 0.06 ratio
B4 | 1.34 ratio
B5 | 1.19 ratio
B6 | 0.98 ratio
B7 | 0.89 ratio
B8 | 0.22 ratio
B9 | 0.95 ratio
B10 | 1.05 ratio
B25 | 0.03 ratio
B11 | 1.07 ratio
B12 | 0.09 ratio
B13 | 1.09 ratio
B14 | 1.23 ratio
B15 | 0.55 ratio
B16 | 0.25 ratio
B17 | 0.92 ratio
B18 | 1.02 ratio
B19 | 1.12 ratio
B20 | 0.45 ratio
B21 | 0.8 ratio
B22 | 1.27 ratio
B23 | 0.76 ratio
B24 | 1.2 ratio

molecular target: T3, human FcγRIIB α subunit extracellular …; experiment: hexamer ELISA

Binder | ratio to native IgG1
B1 | 0.14 ratio
B2 | 0.83 ratio
B3 | 0.22 ratio
B4 | 1.2 ratio
B5 | 1.45 ratio
B6 | 1.59 ratio
B7 | 0.17 ratio
B8 | 1.29 ratio
B9 | 1.34 ratio
B10 | 1.36 ratio
B25 | 0.1 ratio
B11 | 1.3 ratio
B12 | 0.13 ratio
B13 | 1.6 ratio
B14 | 1.19 ratio
B15 | 0.68 ratio
B16 | 0.5 ratio
B17 | 1.19 ratio
B18 | 1.02 ratio
B19 | 1.65 ratio
B20 | 0.75 ratio
B21 | 1.53 ratio
B22 | 0.76 ratio
B23 | 0.84 ratio
B24 | 1.28 ratio

molecular target: T4, human FcγRIIA-Arg131 α subunit …; experiment: hexamer ELISA

Binder | ratio to native IgG1
B1 | 0.13 ratio
B2 | 0.92 ratio
B3 | 0.23 ratio
B4 | 1.09 ratio
B5 | 1.4 ratio
B6 | 1.3 ratio
B7 | 0.27 ratio
B8 | 1.14 ratio
B9 | 1.29 ratio
B10 | 1.24 ratio
B25 | 0.05 ratio
B11 | 1.15 ratio
B12 | 0.07 ratio
B13 | 1.34 ratio
B14 | 1.2 ratio
B15 | 0.8 ratio
B16 | 0.62 ratio
B17 | 1.11 ratio
B18 | 1.03 ratio
B19 | 1.33 ratio
B20 | 0.65 ratio
B21 | 1.23 ratio
B22 | 0.92 ratio
B23 | 0.95 ratio
B24 | 1.24 ratio
